B1: human CXCL14 (ligand)
chain: SKCKCSRKGPKIRYSDVKKLEMKPKYPHCEEKMVIITTKSVSRYRGQEHCLHPKLQSTKRFIKWYNAWNEKRRVYEE
notes: also called hCXCL14; source: commercially available (Protocol S2)
B2: human CCL18 (ligand)
chain: AQVGTNKELCCLVYTSWQIPQKFIVDYSETSPQCPKPGVILLTKRGRQICADPNKKWVQKYISDLKLNA
notes: also called hCCL18; source: commercially available (Protocol S2)
B3: human CXCL13 (ligand)
chain: VLEVYYTSLRCRCVQESSVFIPRRFIDRIQILPRGNGCPRKEIIVWKKNKSIVCVDPQAEWIQRMMEVLRKRSSSTLPVPVFKRKIP
notes: also called hCXCL13; source: commercially available (Protocol S2)
B4: human CCL28 (ligand)
chain: SEAILPIASSCCTEVSHHISRRLLERVNMCRIQRADGDCDLAAVILHVKRRRICVSPHNHTVKQWMKVQAAKKNGKGNVCHRKKHHGKRNSNRAHQGKHETYGHKTPY
notes: also called hCCL28; source: commercially available (Protocol S2)
B5: human CXCL9 (ligand)
chain: TPVVRKGRCSCISTNQGTIHLQSLKDLKQFAPSPSCEKIEIIATLKNGVQTCLNPDSADVKELIKKWEKQVSQKKKQKNGKKHQKKKVLKVRKSQRSRQKKTT
notes: also called hCXCL9; source: commercially available (Protocol S2)
B6: human CCL22 (ligand)
chain: GPYGANMEDSVCCRDYVRYRLPLRVVKHFYWTSDSCPRPGVVLLTFRDKEICADPRVPWVKMILNKLSQ
B7: human CXCL11 (ligand)
chain: FPMFKRGRCLCIGPGVKAVKVADIEKASIMYPSNNCDKIEVIITLKENKGQRCLNPKSKQARLIIKKVERKNF
notes: also called hCXCL11; source: commercially available (Protocol S2)

What follows are molecules tested against soluble, secreted form of HSV-2 glycoprotein G (SgG2) (herpes simplex virus type 2) (UniProt P13290) (assay: SPR; Biacore X; SgG1 or SgG2 amine-coupled to CM5 chips (dialysed against acetate buffer pH 5.0 for SgG1, pH 5.5 for SgG2); chemokines injected; screening at 100 nM and kinetic conditions as in ref. 16; Biaevaluation 3.2).
Chain of soluble, secreted form of HSV-2 glycoprotein G (SgG2) (herpes simplex virus type 2) (P13290 23-699): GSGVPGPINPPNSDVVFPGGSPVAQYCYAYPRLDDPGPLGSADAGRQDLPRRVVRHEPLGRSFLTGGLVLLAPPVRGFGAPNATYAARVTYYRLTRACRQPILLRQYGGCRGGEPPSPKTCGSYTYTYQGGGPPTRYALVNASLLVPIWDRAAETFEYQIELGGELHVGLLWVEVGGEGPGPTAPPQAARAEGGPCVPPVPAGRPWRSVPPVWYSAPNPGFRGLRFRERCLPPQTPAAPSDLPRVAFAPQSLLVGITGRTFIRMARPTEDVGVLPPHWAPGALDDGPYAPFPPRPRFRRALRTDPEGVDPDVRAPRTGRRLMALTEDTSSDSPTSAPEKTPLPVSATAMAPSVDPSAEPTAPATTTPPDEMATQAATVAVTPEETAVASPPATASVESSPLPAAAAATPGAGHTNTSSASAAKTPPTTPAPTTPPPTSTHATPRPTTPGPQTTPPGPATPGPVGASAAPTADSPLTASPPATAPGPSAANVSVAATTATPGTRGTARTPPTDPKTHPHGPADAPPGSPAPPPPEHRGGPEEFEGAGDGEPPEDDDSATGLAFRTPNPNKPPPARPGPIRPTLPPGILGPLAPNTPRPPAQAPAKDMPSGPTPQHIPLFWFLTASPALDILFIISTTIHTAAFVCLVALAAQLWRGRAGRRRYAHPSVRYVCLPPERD
“human CXCL12β (from UniProt P48061 22-93) (ligand)” gave a Kd of 2.2 nM. Molecule “human CXCL10 (from UniProt P02778 22-98) (ligand)” has a Kd of 5.5 nM. With “human CCL25 (from UniProt O15444 24-150) (ligand)” the Kd was 1.6 nM. In the case of “human CCL26 (from UniProt Q9Y258 24-94) (ligand)”, the Kd is reported as 1.72 nM. With B1 the Kd was 4.3 nM. B2 showed a Kd of 28 nM. B3 was tested, and the Kd was 4.3 nM. In the case of B4, the Kd is reported as 3.2 nM. With B5 the Kd was 12.3 nM. B6 showed a Kd of 5.22 nM. B7 gave a Kd of 6 nM.

— publication PMC3271085, “Enhancement of Chemokine Function as an Immunomodulatory Strategy Employed by Human Herpesviruses” (PLoS Pathogens, 2012)
